Results: the supplement of paper PMC12636428

System: Saccharomyces cerevisiae
Experiment: transcriptional activation domain activity (GFP:mCherry ratio, weighted mean of sorted bins, harmonized to initial dataset scale) (arbitrary fluorescence ratio units); higher = stronger transcriptional activation
Conditions: beta-estradiol 1 µM; induction time 4 h
How it was run: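 After a 1:5 dilution into SC with 1 uM beta-estradiol and 4 hours at 30 °C, yeast diploids carrying a GFP reporter and URA3-integrated barcoded tiles were sorted into 8 bins by GFP:mCherry ratio. The tiles were fused to an estradiol-inducible synthetic transcription factor. Barcodes were sequenced, tiles below 50 reads were discarded, and activation activity was taken as the read-weighted mean of bin median fluorescence, averaged across barcodes and linearly mapped onto the initial dataset scale.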

Sequence	transcriptional activation domain activity
FLPCDPYFLVSFFIQFFLLGFPFCLPLLSFLLLLLSFFHLSLEVFSLLLGDFH	59400
SFSSYSSLPSFPSFPYFPSFPFLPFLPFSCVLFLLFLPFLHFLLLPSFPFFYL	70900
LVGLIGTLVAEPGLGADRFLLCFLFLSYYTLLTPSNLLVGIFWLVFFVLQLGY	39700
HSSTAFSGYIDDPFNLNEILPLPASDFKLNTVTNLNEIDFTNIFTKSPHPHSG	136000
PSNQAFWIACLFSSVMYHLLFHLLLLFFSLLFLFFLFFLPSYHVLFHFHHMTG	47700
NDGNESNEDYLGNEKFYLNEILPDEESKLRWKRVFENSENDHDNEKNFLTDWE	39900
MCEQHTCLFVLLSVKLLLWRLLFFVESSFLDGMELVLTGRWWAYYIYLWCLTV	54400
AATTAEPERKKSSKDRKSPEIVSEAKKSKDSPGEVKRSSSKREKEKEKEKSSS	37300
MCNLFSFSVQSISGNGVLYIFSFKVLYTFLPSPLLFLSFFSLLFYFFILSLFS	38400
VMLNQQILYFCLRILCMHAYAQFRMEDSDIWRMVEKKKHIYNRLIELVYTLCS	46300
SNKRPSSGPARGGRNNGGRGNNQNANNNRGGRRGRGGAKESGAPNGQKKAGAP	9410
PLVVFPNFMAVVIIFGFFFMYFEDFNKEVFLHNKHHQIWVYLHFPLHLCQVAF	78400
ISLLVLGCWIPFIILMEGYLQSLTFESFPYPGLYCFTSQGSHIIYLCWVLIAI	60200
FVTLFGLAYFILTILPCLDHSCPYRTPMSSLWWYLWHMSLSSATLCLCWLLRL	33600
NSSSNNNVSTVPSSMMHSSTLNGTSGLGGDNDDNMLALSLATLANSATASPRL	27900
FSSLEDSLPSSISPPIQTTSTINFNWCFKEEKNNDLKCKWKECPESCSSLFDL	69800
FTRVDICFRNCYAGGTVVLVYSALAFFLLLMIAMYGNGYHGPFAWMTFTLSTV	53000
SASASAAPAASTAGSADKSGGAQEKHRGGRRRGGRGRGDKESGGKEGGSKNTE	34400
VRVLNQLKLLLYCTLLSPVYAFKPYRNLYYTFLRKNLLGVVGGYNCAGHNLAI	55500
KEKSASERKEEKRQKKMRGEDVSDSEEEKRKRKDKQRGQRVHAVGSGTTSGAS	35900
CDEHINMKEKEPEKDETPAADGAAKEEEKKPETKPDDTFQAFVVIAVALISMG	27600

Sequence	transcriptional activation domain activity
GWKYIILAACDVEGNFLVVKVGLFSTTILLVMTLRYQAYQYTNLLSCMLLDAW	43000
IGENDTVDGKRFCTFYPQYREGRVRVNLGVTRLSFRAFYICPLAFTIARYLLN	67400
IRSWGDAVLAHSPLFDHVDGDAACPCSRCCSGVIAWSFWERVIRIVPMHLFSA	64500
LFLMVAPYPSLLIVLVNHYLRTLDKPIAFVIHFLVIFTLKFLAFISLIVCVAR	75600
RKEGGGHGSSSRRDRDRDRDRSDRHRSSKKSSSSNNHDADGTAAAAADASGVH	18200
MSSWVYKYQLMFVFVSKVESGGRIWNVIINRLLICVLLMQMLMILTMGLQYRF	49000
PKEAVASTPEEPAASEPVAAPALAAAEPVAAAEAPAAAPVPETKAEEVSIQHL	23600
DSKGFEARRANMGNDVELTGARAIVLVNIWNVQTSCGLSVPLVVQSNSGTECG	59400
QFSWNVCFMVFLFLFLFLFLCFVCFTLLCLSKMLHNVLHYNFILCFLSSFCFV	52400
MDGVFGDCFFFLCFIFVFCFITFFFFFGLLLLLCCYGLDGGYVLVFFFLFFFV	33500
LVYPIVYLYMDRFFMFVLCSPPSHVLGCWESVTVRTYVGILFPLLICCLFYVL	41100
CDSGNEFDGRIGLRVSSIFVILIGSLIGAMLPVVLARSSKMRVPKLAFFVAKY	36900
LRHICLLLSIWSKHLIERLKKLPANVRLTIVQALVRFVIPKLHIYGHKLLCQL	44500
MIHGLQSYNLSFLIFFLFLLSSLFVLFVMLSKFAFVLFVDTLYCLIPYVFLFF	42500
SKDDRSISSEDKASSDKLKKSSDRADRKRKDDDDSKRSKADRKSKRDEERSSD	29600
EKRGAAKRADRSRSRSRGRSRGAKDVARRRRRNSSADSHEAREHRRQGKRGRS	44700
RFLLAALLLFGPLIGSCPSMSMSLMITEFGLFCCACLLGFVHHLFFPIFVESR	47600
GKGKRKAVSEEEDKDEEGDEEPVKAKGKGKGKGKRKVVAKKVKRRAPAAADTS	< 6570
DGYRNDNRGRNRRGNGRSRSPRGGKDSRNGTPPLTEDERDKRTIFVQQLAARL	57100
LARVYIRVFVLRVFRLDDYFIVVAMLCSILACSIFLWVVHLGMGKHFFALPPE	63900
RPQSKERGGRREDGAGTDEGDSSTHPSCSSHVGRQEGVFQTVQCKHYWVVKWE	49900
